Laboratory results published in patent US20230151091A1 (NEW YORK UNIVERSITY, published 2023).

How the values were obtained:
human MuSK [1] = biological target: T1, human MuSK (human, UniProt O15146 24-495); test: ELISA, plate coated with human MuSK at 0.2 µg/ml, dilution series of mAb, goat anti human Fc-HRP and TMB, OD 620 nm (8 min)
T1 construct: Recombinant protein coated on ELISA plates (R&D Systems cat. 10189-MK) or on the Biacore chip; also called human muscle-specific tyrosine protein kinase; full length human MuSK
T1 sequence: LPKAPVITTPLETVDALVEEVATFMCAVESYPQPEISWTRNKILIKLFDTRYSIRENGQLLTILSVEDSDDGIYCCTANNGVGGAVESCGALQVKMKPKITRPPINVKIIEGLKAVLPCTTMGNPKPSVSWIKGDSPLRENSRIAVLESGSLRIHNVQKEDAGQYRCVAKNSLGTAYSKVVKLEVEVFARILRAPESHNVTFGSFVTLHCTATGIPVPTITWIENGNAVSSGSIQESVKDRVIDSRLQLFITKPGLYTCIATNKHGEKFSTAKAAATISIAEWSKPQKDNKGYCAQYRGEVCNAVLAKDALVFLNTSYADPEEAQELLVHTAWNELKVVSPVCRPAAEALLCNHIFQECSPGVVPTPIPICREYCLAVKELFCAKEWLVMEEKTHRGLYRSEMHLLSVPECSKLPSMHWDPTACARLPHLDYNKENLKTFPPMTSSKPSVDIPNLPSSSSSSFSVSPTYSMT
Protocol: (§1) An ELISA plate was coated with human MuSK (R&D Systems, cat. 10189-MK) or mouse MuSK (in house produced in HEK293 cells) at 0.2 μg/ml. After washing and blocking the plate, a dilution series of the anti-MuSK antibodies was applied and allowed to bind for 2 hours at room temperature. […] OD at 620 nm was measured with a 96 well ELISA plate reader.

mouse MuSK [2] = biological target: T2, mouse MuSK (mouse, UniProt Q61006 22-494, limits assumed); test: ELISA, plate coated with mouse MuSK at 0.2 µg/ml, dilution series of mAb, goat anti human Fc-HRP and TMB, OD 620 nm (8 min)
T2 construct: Coated on ELISA plates or on the Biacore chip; also called full length mouse MuSK; mouse MuSK (in house produced in HEK293 cells)
T2 sequence (looked up): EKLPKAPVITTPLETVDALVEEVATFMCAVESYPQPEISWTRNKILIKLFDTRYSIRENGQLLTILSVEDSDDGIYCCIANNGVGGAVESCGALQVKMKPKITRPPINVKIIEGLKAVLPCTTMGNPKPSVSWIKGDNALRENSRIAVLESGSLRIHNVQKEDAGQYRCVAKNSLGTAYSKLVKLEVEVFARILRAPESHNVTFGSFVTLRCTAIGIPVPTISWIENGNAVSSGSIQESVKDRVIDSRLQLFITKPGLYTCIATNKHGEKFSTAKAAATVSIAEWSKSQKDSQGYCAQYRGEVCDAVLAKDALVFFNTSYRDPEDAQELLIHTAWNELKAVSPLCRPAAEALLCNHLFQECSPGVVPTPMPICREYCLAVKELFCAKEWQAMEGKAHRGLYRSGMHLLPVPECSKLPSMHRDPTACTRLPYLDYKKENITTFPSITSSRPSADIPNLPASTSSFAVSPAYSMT
Protocol: as §1

[3] = biological target: T3, mFz: Fz domain and C-terminal flanking sequence of mouse MuSK (D307 to T494) with C-terminal Avi- and … (mouse, UniProt Q61006 307-494, limits assumed, biotinylated in vitro using the BirA enzyme); test: bead-binding assay, IgG format: biotinylated antigen on streptavidin beads, flow cytometry, 1:1 fit; average ± s.d., n=3
T3 construct: also called mouse Fz; not shown: Avi- and His6-tags
T3 sequence (looked up): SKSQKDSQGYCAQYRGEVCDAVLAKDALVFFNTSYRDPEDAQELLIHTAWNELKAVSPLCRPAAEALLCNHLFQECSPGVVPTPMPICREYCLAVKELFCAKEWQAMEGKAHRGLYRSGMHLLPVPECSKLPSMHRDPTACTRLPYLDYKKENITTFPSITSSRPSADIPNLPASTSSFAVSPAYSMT

[4] = biological target: T4, hECD: full-length extracellular region of human MuSK (E22 to T495) with C-terminal Avi- and His6-tags (human, UniProt O15146 22-495, biotinylated in vitro using the BirA enzyme); test: as above
T4 construct: also called human ECD; not shown: Avi- and His6-tags
T4 sequence: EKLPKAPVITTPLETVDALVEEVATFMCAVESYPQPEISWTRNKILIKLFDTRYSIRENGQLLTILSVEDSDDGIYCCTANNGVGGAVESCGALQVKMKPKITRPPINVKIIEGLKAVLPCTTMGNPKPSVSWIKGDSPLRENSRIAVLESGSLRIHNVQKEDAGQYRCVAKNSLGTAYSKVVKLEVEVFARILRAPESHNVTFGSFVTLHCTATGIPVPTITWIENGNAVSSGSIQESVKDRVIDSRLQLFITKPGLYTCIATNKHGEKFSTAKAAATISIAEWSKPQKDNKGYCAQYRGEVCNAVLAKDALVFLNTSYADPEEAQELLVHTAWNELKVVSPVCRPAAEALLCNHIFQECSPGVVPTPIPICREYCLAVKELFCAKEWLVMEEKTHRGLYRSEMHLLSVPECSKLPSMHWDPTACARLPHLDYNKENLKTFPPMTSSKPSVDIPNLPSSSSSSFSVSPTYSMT

[5] = biological target: T5, mECD: full-length extracellular region of mouse MuSK (E22 to T494) with C-terminal Avi- and His6-tags (mouse, UniProt Q61006 22-494, biotinylated in vitro using the BirA enzyme); test: as above
T5 construct: range 22-494; also called mouse ECD; not shown: Avi- and His6-tags
T5 sequence (looked up): T2 sequence (looked up)

[6] = biological target: T6, hFz: Fz domain and C-terminal flanking sequence of human MuSK (K314-T495) with C-terminal Avi- and His6-tags (human, UniProt O15146 314-495, biotinylated in vitro using the BirA enzyme); test: as above
T6 construct: also called human Fz; not shown: Avi- and His6-tags
T6 sequence: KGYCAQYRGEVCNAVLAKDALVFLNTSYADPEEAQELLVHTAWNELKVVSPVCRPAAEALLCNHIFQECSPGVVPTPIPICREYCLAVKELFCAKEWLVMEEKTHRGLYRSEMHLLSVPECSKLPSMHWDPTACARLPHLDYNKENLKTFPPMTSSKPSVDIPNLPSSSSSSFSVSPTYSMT

[7] = biological target: T7, mouse MuSK, endogenous (C2C12 myotubes; neuromuscular synapses of mice) (mouse, UniProt Q61006 22-868); test: in vivo: wildtype mice injected i.p., diaphragm stained two days later with anti-human F(ab')2 Alexa 647 and Alexa 488-alpha-BGT; ratio of signal intensities at the synapse [continued]
T7 construct: whole, on cells; also called MuSK at the synapse; synaptic MuSK
T7 sequence (looked up): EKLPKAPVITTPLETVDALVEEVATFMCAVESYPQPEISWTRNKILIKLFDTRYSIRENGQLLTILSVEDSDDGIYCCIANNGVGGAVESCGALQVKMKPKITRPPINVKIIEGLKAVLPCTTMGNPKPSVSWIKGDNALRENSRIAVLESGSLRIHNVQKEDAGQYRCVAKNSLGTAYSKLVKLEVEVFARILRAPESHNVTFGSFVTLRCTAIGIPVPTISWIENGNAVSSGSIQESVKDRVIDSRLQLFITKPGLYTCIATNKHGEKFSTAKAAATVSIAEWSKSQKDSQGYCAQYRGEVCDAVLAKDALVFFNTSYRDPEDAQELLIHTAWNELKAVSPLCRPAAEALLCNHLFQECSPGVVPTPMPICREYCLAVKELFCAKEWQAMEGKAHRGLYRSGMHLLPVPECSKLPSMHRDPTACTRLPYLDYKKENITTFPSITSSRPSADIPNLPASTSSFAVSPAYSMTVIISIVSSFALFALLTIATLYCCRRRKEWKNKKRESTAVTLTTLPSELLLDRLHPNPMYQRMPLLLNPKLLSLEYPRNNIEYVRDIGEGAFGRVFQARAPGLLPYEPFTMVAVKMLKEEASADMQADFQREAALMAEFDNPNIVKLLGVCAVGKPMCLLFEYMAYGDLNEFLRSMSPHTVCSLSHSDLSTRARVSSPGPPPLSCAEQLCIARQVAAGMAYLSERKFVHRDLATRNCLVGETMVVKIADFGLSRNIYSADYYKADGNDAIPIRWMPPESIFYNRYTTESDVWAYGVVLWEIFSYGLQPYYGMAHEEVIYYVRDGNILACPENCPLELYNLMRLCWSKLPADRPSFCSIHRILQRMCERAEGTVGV

mouse MuSK [8] = biological target: T2, mouse MuSK; test: Biacore, Fab
Source text: (§2) For affinity determination, a CMS chip was coated with either human or mouse MuSK (200RU) and a dilution series of the antibodies (mAbs and Fabs) was applied in order to be able to calculate the affinity.

human MuSK [9] = biological target: T1, human MuSK; test: Biacore, MuSK on chip (200RU), Fab dilution series
Source text: as §2

mouse MuSK [10] = biological target: T2, mouse MuSK; test: Biacore, MuSK on chip (200RU), Fab dilution series
Source text: as §2

B1: 16F11 (antibody, V domains shown)
VH: EVQLVESGGGLVQPGGSLSLSCVASGFTFSLYYMNWVRQAPGKGLEWLSVIDTHSIAYYADSVKGRFTISRDNVKNTLYLQLNNLKPEDTALYYCVLGRTALVRWGQGTQVTVSS
VL: DIVMTQSPSSVTASVGEKVTINCKSSQSVVFGSNQKSYLNWYQQRPGQSPRLLIYYASTQESGIPDRFSGSGSTTDFTLTISSVQPEDAAVYYCQQAYSAPTFGSGTRLEIK
notes: human IgG1 with the LALA mutations (L234A, L235A); produced in HEK293 cells
Human MuSK [1]
  EC50 (read off the curve): ~0.02 µg/mL
Mouse MuSK [2]
  EC50 (read off the curve): ~0.02 µg/mL

B2: mIgG2a-X17 (antibody, V domains shown)
VH: EVQLVESGGGLVQPGGSLRLSCAASGFTISYSSIHWVRQAPGKGLEWVASIYSSSGSTYYADSVKGRFTISADTSKNTAYLQMNSLRAEDTAVYYCARGDHGYYVFGYLGMDYWGQGTLVTVSS
VL: DIQMTQSPSSLSASVGDRVTITCRASQSVSSAVAWYQQKPGKAPKLLIYSASSLYSGVPSRFSGSRSGTDFTLTISSLQPEDFATYYCQQSYKPGALITFGQGTKVEIK
notes: chimeric antibody of a human Fab (human CH1) and mouse IgG2a Fc with the LALAPG mutations; also called X17-mIgG2a-LALAPG; antibody X17
[3]
  Kd: 0.74 nM
[4]
  Kd: 0.97 nM
[5]
  Kd: 1.1 nM
[6]
  Kd: 0.61 nM
[7]
  EC50 (read off the curve): ~0.5 mg/kg

B3: 30E1 Fab (Fab, V domains shown)
VH: QVQVQESGPGLVKPSQTLSLTCTVSGGSITARYYSWSWIRQPPGKGLEWMGVIAYDGSTYYSPSLKSRTSISRDTSKNQFSLHLSSVTPDDTAVYYCARGSSRVAAAFDSWGQGTQVTVSS
VL: SYELTQSPSVSVALRRTAKITCGGDNIGSKNTQWYQQKPGQAPVLVIYADSRRPSGIPERFSGSNSGNTATLTISGAQAEDEADYYCHVWDSSTNAWFGGGTHLTVL
notes: Fab format
Mouse MuSK [8]
  fold difference in affinity, human versus mouse MuSK: ≥ 1000 fold
Human MuSK [9]
  Kd: 0.07 nM
Mouse MuSK [10]
  Kd: 5.39 nM

B4: 30A11 Fab (Fab, V domains shown)
VH: B3 VH
VL: SYELTQSPSVTVALRQTAKITCGGDNIASKNVQWYQQKPGQAPSLVIWADSRRPSGIPVRFSGSNFGNTATLTISGAQAEDEADYYCQVWDSSTNVAVFGGGTHLTVL
notes: Fab format
Mouse MuSK [8]
  fold difference in affinity, human versus mouse MuSK: ≥ 1000 fold
Human MuSK [9]
  Kd: 0.008 nM
Mouse MuSK [10]
  Kd: 2.42 nM
